Results: the DeepSol protein solubility set

Test: soluble on expression in E. coli; label from the status in PepcDB or PDB records

Sequence	soluble on expression in E. coli
MLWQKPTAPEQAPAPARPYQGVRVKEPVKELLRRKRGHASSGAA	soluble
SNAMSGNGNAAATAEENSPKMRVIRVGTRKSQLARIQTDSVVATLKASYPGLQFEIIAMSTTGDKILDTALSKIGEKSLFTKELEHALEKNEVDLVVHSLKDLPTVLPPGFTIGAICKRENPHDAVVFHPKFVGKTLETLPEKSVVGTSSLRRAAQLQRKFPHLEFRSIRGNLNTRLRKLDEQQEFSAIILATAGLQRMGWHNRVGQILHPEECMYAVGQGALGVEVRAKDQDILDLVGVLHDPETLLRCIAERAFLRHLEGGCSVPVAVHTAMKDGQLYLTGGVWSLDGSDSIQETMQATIHVPAQHEDGPEDDPQLVGITARNIPRGPQLAAQNLGISLANLLLSKGAKNILDVARQLNDAH	soluble
MGSDKIHHHHHHMKNRIIEKIENALQTLKNGGLIIITDDENRESEGDMVGLAEYVTPKAVNTMVTNARGLLCVPMSAEIAQKLGLSPMVTNAEDAFGTAFTISTDAKTTKTGISAFDRAKTIQKLADPQAKFSEFYHPGHVFPLIAEEGGVLARGGHTEAAVDLAKLAGVRPVAYITEVLKKDGTMARRNTLKSLAEGMQMPLLTIEEIKIYRYMKDAGIVKSVAKVHLPTKYGEFEMEAFDTGAGQEPTLLLTKGSLSEVQPLLLRIHSECLTGDIFGSKRCDCGEQLERSLKEIQSRGRGALLYLRQEGRGIGLANKLKAYELQEQGMDTVEANLKLGFQADERHYGVAAAILRKKGITKVNLLTNNPDKIKQLETLGIKVEERVTIQIPARPENRSYLKVKKEKMHHLLKGMD	not soluble
MSLRASGSGANPDKTWESRSLPIGNGSLGANILGSVAAERITLNEKTLWKGGPNTSKGAEYYWDVNKQSAGVLKEIRQAFLDEDKEKAAQLTRNNFNGLAAYEEKDETPFRFGSFTTMGELYVETGLNELRMSNYRRILSLDSAMVVVQFDKDGVQYQRKYFISYPDSVMVMKFTANQSGKQNLILSYCPNSEAKSNLRADGKDGLVYTGVLDNNGMKFAFRIKAIHKGGTLEAENDRLIVKGADEVVFLLTADTDYKMNFNPDFKDPKTYVGNDPEQTTRIMMDQAVQKGYDELYRNHEADHTALFNRVRLQLNPDISSPNLPTYQRLANYKKGTPDYQLEQLYYQFGRYLLIASSRPGNMPANLQGMWHNNLDGPWRVDYHNNINIQMNYWPACSANLSECTWPLIDFIRSLVKPGEQTAQAYFNARGWTASISANIFGFTAPLSSNMMSWNLNPTAGPWLATHIWEYYDYTRDKKFLKEIGYDLIKSSAQFAVDHLWHKPDGTYTAAPSTSPEHGPIDEGVTFAHAVVREILLDAIQASKELGIDSKERKQWEKILDKLVPYRIGRYGQLMEWSTDIDDPEDEHRHVNHLFGLHPGHTISPITTPKLAEAAKVVLEHRGDGATGWSMGWKLNQWARLQDGNHAYKLYGNLLKNGTLDNLWDTHAPFQIDGNFGGTAGITEMLLQSHMGFIQLLPALPDAWKNGSITGICAKGNFEISISWKEGQLDKATILSGSGTPCNVRYGDKTLSFSTVKGKKYEITLVGNLLKLEGHHHHHH	soluble
MELISIIVPVYNGEIYIGRCLDSILEQTYQNLEIIIIDDGSSDRTGDICEKYFLEDRRIKYFYQENRGQSVARNNGVLRCTGDWIAFLDSDDVYLPYSIEVMYNIQKATNADIVLTSIGNFNNTYNTSINSQYLKEIKLYTLEVALEEMYYGKTYGVSPLAKLYPRSNLLSNPYPEGKIHEDMDTTFKLISCASKIAVCDIVTAVVYFSDNSTTRTKFNERMLYFFEAIQNNIVFINLNFPHNTSLISAVIYNEVFGGIDICGKMIDFKLYDTVDYYRKKYRKYFKTILFNNRISVKEKVKYILFISSIRYFTIVRKIYNLRLSRNGLEHHHHHH	not soluble
MCVVIFLKFLFSDNGNNQHGTEAAFGRLAQSYRIQDLLFIIVIFFRAIHIMMFHRPPSARPPLNHVDQLKSLQATALGKPGMRSQATEPQPIGNTVSPLEFRIHDMNRRLYIFSSTGVSENDQQQWWDAFSHEFFDDDCKLWFVIGSEPVAFASRERYIINRQFIPKFFRSIFDSGMRELQYVLRGPSRECTLANGSQAYENENVLQITRYDQSSQFEVNTEGKLYVEFAPFDEVMNYRIKAWTLELKRSNEFVYNQNTADYRVEAQNPEQENKPRMGFFKSTFNLMTMLKILDPMQSIMSSAKSAPAITPREVMKRTLFQHHQVRQQNMRQQQLNQQMMIPAPEPEKPKPARKRQRKPAANPRGSKKATAAAAAAAAAATNGVPPTVPTASPANNQQFPPNPMTSQFQQMSYPDVMVVGEPSMMGSEFGENDERTISRVENSQYDPNAMQMQSLGQGPNSSMNINGRNMMNQHHPGMQPPPGQQHMPPHSMGSQMPTSMHNPMHMPPGSMQGHGGMPPMPSTMANQMPPPNLPPHTMSNQMPNSRMPPMQGQMPPSGMPGQMSNPNMMGSGMPPMSMSSQMPGSMSNPMPNQMPGGMQMNQMPPPNYSQYTGGPPPQWPPPNSAMITG	not soluble
MSSPGGETSTKQQQELKAQIKIGHYILKETLGVGTFGKVKVGIHETTQYKVAVKILNRQKIKSLDVVGKIRREIQNLSLFRHPHIIRLYQVISTPSDIFMIMEHVSGGELFDYIVKHGRLKTAEARRFFQQIISGVDYCHRHMVVHRDLKPENLLLDEQNNVKIADFGLSNIMTDGDFLRTSCGSPNYAAPEVISGKLYAGPEVDVWSCGVILYALLCGTLPFDDEHVPSLFRKIKSGVFPTPDFLERPIVNLLHHMLCVDPMKRATIKDVIAHEWFQKDLPNYLFPPINESEASIVDIEAVREVTERYHVAEEEVTSALLGDDPHHHLSIAYNLIVDNKRIADETAKLSIEEFYQVTPNKGPGPVHRHPERIAASVSSKITPTLDNTEASGANRNKRAKWHLGIRSQSRPEDIMFEVFRAMKQLDMEWKVLNPYHVIVRRKPDAPAADPPKMSLQLYQVDQRSYLLDFKSLADEESGSASASSSRHASMSMPQKPAGIRGTRTSSMPQAMSMEASIEKMEVHDFSDMSCDVTPPPSPGGAKLSQTMQFFEICAALIGTLAR	not soluble
MGSDKIHHHHHHMILKTKLFGKVYQFTSVKEVLAKANEEKSGDKLAGVAANSAEERVAAKVVLSELSLNDLFNNPVVDYDEDEVTRIIIDQVNMRIFESIKHWTVAELREFILSSETTDFDIKRISRGLTSEMIAAVCKLMSNMDLIVGAKKINIEKTANTTIGRPGTFSNRLQPNHPTDNVDGIMASVMEGLSYGAGDALIGLNPVDDSTESVKRILNKFEEFRSEWEIPTQTCVLAHVTTQMEAMRQGAPTGLVFQSIAGSEKGNTAFGLNAEILAEAQDLALHSGQAAGPNVMYFETGQGSELSSEANFGADQVTMEARCYGLAKKFDPYIVNTVVGFIGPEYLYDSKQVIRAGLEDHFMGKLTGISMGCDVCYTNHMKADQNDMENLAMLLATAGCTYIMGIPHGDDVMLNYQTTGFHETATIRETLGLRPIKEFEEWMEKMGLMENGKLTSRAGDASVFIK	not soluble
MSLTLFHAPRSRSTRIVTLLRELDAIDKVAIKIVDITRGDGSGRKDPKNLHPEGKVPLLDHDGVVIWESIAIIQYLTDLFPEKKMAPVAGDPQRGRYLSWLAWYAGVVEPVLIMQAAGISHPFVDFTFRSPAELAARLETALKDCPYLMGERYTAVDLLLHSPFAWCPAATPESDVVKAWIERCGERPSLQWTANYDACTVVAEGHHHHHH	soluble
MAEHDITPEVTISKTQRRYKVGYVRARHQDRKTGIARYYSQHPSLHLKGDWLKEAGFDTGRGVTVKISEGGLTIIADSDEVQELRDGMFSVLNES	not soluble
MVLDNLGKALANTLKKIARASSVDEALIKELVRDIQRALIQADVNVRLVLQLTREIQRRALEEKPPAGISKKEHIIKIVYEELTKFLGTEAKPIEIKEKPTILLMVGIQGSGKTTTVAKLARYFQKRGYKVGVVCSDTWRPGAYHQLRQLLDRYHIEVFGNPQEKDAIKLAKEGVDYFKSKGVDIIIVDTAGRHKEDKALIEEMKQISNVIHPHEVILVIDGTIGQQAYNQALAFKEATPIGSIIVTKLDGSAKGGGALSAVAATGAPIKFIGTGEKIDDIEPFDPPRFVSRLLGLGDIQGLLEKFKELEKEVEIKEEDIERFLRGKFTLKDMYAQLEAMRKMGPLKQILRMIPGLGYSLPDDVISIGEERLKKFKVIMDSMTEEELLNPEIINYSRIKRIARGSGTSTKDVKELLDQYRQMKKLFKSMNKRQLSRLARRFGM	soluble
MSDLLDTVRGLAKKTDSKILMVVLDGVGGLPLTVNGDTELATARTPNLDALAQESQLGQLELVGAGITPGSGPGHLSLFGYDPLKYVVGRGALSAVGIGVKLNRGDVAVRGNFATLGAGRLILDRRAGRPSDEKNAEIVAKLRAAIPEIDGVAVEVYTESEHRFVVVFRAPEGQPLGANISDVDPQVTGVEPKTAIANDPSSEVTAGLINTFVARAEVALADEPQVNGVLFRGYSDVPHFPSFEDAYQLKAACIASYPMYKGLASLVGMDVLPVEGHEDALEGKVKALRENWAKYDFFYFHIKKTDSTGEDGDFAEKVHKIELFDELLPQLLELQPDVIAVVGDHSTPSKLKSHSWHPVPLLIRSNYGRRDPAQRYTEEEAARGTLGLRHGPDLMPLLMANALKLNKYGALEHHHHHH	soluble
MRYEEPVFRPPSEAFSLIVQATIGCSWNRCTFCGMYKMKKFRVRDIEEVKEDFRLAKEIYGDVRRVFLADGNALAADTDYLLEIADYANKLFNLERISCYATPQDILEKSKEELKEIRNAGIKLLYVGIESGDDEILERIRKGVSSNEIAEACMKAHECGFELSVTVLTGIGGKERSYKNARNTARLLNRISPKYTGVLTYIPVPNTPLYVKIKRGEFLLPNPLENLLELRWMVERIEARTIFRCNHASNYLPLKGTLPEDREKLLKAIDYAIAHPEVLKPEWLRGL	not soluble
IGQVNLQLRANFTYQTTDIIDKDEAANELWYKMDKGFQLNQSRGLIALGLFKDQDEIDRSPKQTSNRPILPGDIKYKDVNGDGVINDDDIVPLGYREVPGLQYGVGLSANWRNWNLSVLFQGTGKCDFFIGGNGPHAFRSERYGNILQAMVDGNRWIPKEISGTTATENPNADWPLLTYGNNDNNNRKSTFWLYERKYLRLRNVEVSYDFPQTWTRKFFVSNLRLGFVGQNLLTWAPFKMWDPEGTREDGSNYPINKTFSCYLQISF	not soluble
MNHNDVLRSLRYMLKVNDAKMAEIIGLSGLEVHPLVLATYLKKEEEEGFVRCPERVMAHFLDGLVIYRRGKDESRPQQPIELPVTNNLILKKLRVAFELKEDDLHAILKSVNFPVSKPELSALFRKAGHDNYRPCGDQLMRNFLKGLTLRVRG	not soluble
MKNSNFPAEVKDLTKRIRTVLMATAQMKEHEKDPEMLVDLQYSLANSYASTPELRRTWLESMAKIHARNGDLSEAAMCYIHIAALIAEYLKRKGYWKVEKICTASLLSEDTHPCDSNSLLTTPSGGSMFSMGWPAFLSITPNIKEEGAMKEDSGMQDTPYNENILVEQLYMCVEFLWKSERYELIADVNKPIIAVFEKQRDFKKLSDLYYDIHRSYLKVAEVVNSEKRLFGRYYRVAFYGQGFFEEEEGKEYIYKEPKLTGLSEISQRLLKLYADKFGADNVKIIQDSNKVNPKDLDPKYAYIQVTYVTPFFEEKEIEDRKTDFEMHHNINRFVFETPFTLSGKKHGGVAEQCKRRTILTTSHLFPYVKKRIQVISQSSTELNPIEVAIDEMSKKVSELNQLCTMEEVDMIRLQLKLQGSVSVKVNAGPMAYARAFLEETNAKKYPDNQVKLLKEIFRQFADACGQALDVNERLIKEDQLEYQEELRSHYKDMLSELSTVMNEQITGRDDLSKRGVDQTCTRVISKATPALPTVSISSSAEV	not soluble
MNQYPDFDQKLYDDLRRGKEYAFAAVFDRYHRLLYTIAYRFLKSEEEAEDAVQYLFMKLWEQRETFSFESGIRSLLFTILKNYILNELRHRNLVFEKLYEMAQQVNDEDEDAFLTRFEHGELRKSLRVAIDKLPPQKQKICLLKIEYGLSNQEIADRMGITVPTVKSHYTQAIKALRNAIESLIMWFPVIWIYLID	not soluble
